One substance from patent publication US20190211099A1, “METHODS AND COMPOSITIONS FOR TREATING CANCER WITH SIGLEC-9 ACTIVITY MODULATORS” (KING'S COLLEGE LONDON, priority 2016, published 2019) can be followed below.

Experiment [1] concerns the target T1, Siglec-9 (Homo sapiens, UniProt Q9Y336). Nature of the experiment: Phosphorylation of Siglec-9 (ELISA, phospho immunoreceptor array). Type of experiment: cell-based. As to conditions: monocytes and macrophages; antibody cross-linked. Here is the method: To determine the intracellular effects of MUC1-ST binding to Siglec-9, the ability of MUC1-ST to induce phosphorylation of the immunoreceptor tyrosine-based inhibitory motif (ITIM) of Siglec-9 thereby inducing intracellular inhibitory signals (Avril et al. (2004) J. IMMUNOL. 173: 6841-6849) was assessed. Without wishing to be bound by theory, it was hypothesized that this was likely occur as the repeated glycans found on MUC1 could be able to crosslink this lectin. To investigate the effects of MUC1-ST on Siglec-9 phosphorylation, monocytes or differentiated M-CSF macrophages were treated with MUC1-ST or cross-linked anti-Siglec-9 antibody at 4° C. for 4 hours or 30 minutes, respectively, and were then brought to 37° C. for 15 minutes, and lysed in the presence of pervanadate. Lysates were assessed for the phosphorylation of Siglec-9 using an ELISA or a 59 phospho immunoreceptor array (Bio-Techne) according to the manufacturer's instructions. For the ELISA, anti-human Siglec-9 was plated overnight (O/N) on plastic before being blocked with 1% BSA in PBS. Clarified supernatant was added and incubated for 2 hours. After incubation with 1 μg/mL biotinylated anti phospho-tyrosine, O.D. at 450 nm was measured after the addition of streptavidin-HRP and substrate.

Experiment [2] addresses T1, Siglec-9. Nature of the experiment: Binding of biotinylated MUC1-ST to primary monocytes and monocyte-derived macrophages (flow cytometry), with or without blocking antibody. Type of experiment: cell-based. Set-up: endogenous in cells; host or cells: THP-1 and U937 cells. Particulars: primary monocytes, monocyte-derived macrophages and AML lines. As for the experimental part:
Both the cell phenotype staining and neutralization studies described in the Examples were performed using the following antibodies (all anti-human): Siglec-9 (Biotechne; 191240), Siglec-9 FITC (Biotechne; 191240), Siglec-3 (Biotechne; 6C5/2), Siglec-7 (Biotechne; AF1138), Siglec-3 FITC (BD; P67.6), Siglec-7 PE (Biolegend; 6-434), Siglec-10 PE (Biolegend; 5G6), Siglec-1 (abcam; 7D2), HLA-DR FITC (Beckman Coulter; IM0463U), CD16 FITC (Biolegend; B73.1), CD14 FITC (BD 555397), CD69 PE (Beckman Coulter; IM1943), CD25 FITC (ABX228FITC), CD86 PE (Beckman Coulter; IM2729U), CD40 FITC (BD 555588), CD83 PE (Beckman Coulter; IM2218), CD163 PE (Biolegend; GHI/61), CXCR1 FITC (BD Pharmongen; 551126), CD45 PC5 (Beckman Coulter; IM2653U), CD206 PE (ebioscience; 19.2), PD-L1 PE (Biolegend; 29E.2A3), CD36 (Santa Cruz; H-300), TGFbetaRII (Bio-Techne; AF-241), IL-6Rα (Tocilizumab; Roche. A generous gift from Dr. Valerie Corrigall). Cells were suspended in PBS+0.5% BSA (2×10^5 cells/100 μL/sample) and incubated with Abs according to the manufacturer's instructions. At least 1×10^4 events were evaluated using either Epics XL, (Beckman Coulter) or FACSCalibur (BD Biosciences) flow cytometers. […]
To investigate the interaction of MUC1-ST with cells of the immune system, immune cell subsets were obtained as follows. […] Purity was assessed at >95% by staining with relevant antibodies. […]
On the technique in general: A flow cytometer gives signals particle by particle.

In a further experiment the test system is THP-1 cells. The experiment in a line: Calcium flux in differentiated THP-1 cells. Particulars: THP-1 differentiated with PMA, 100 μg/mL MUC1-ST. Type of experiment: cell-based, human. Here is the method:
In addition, in a murine tumor model Siglec-E (the mouse Siglec with the most similarity to human Siglec-9), was associated with a decrease in alternatively activated macrophages (Laubli et al. (2014) PROC. NATL. ACAD. SCI. USA). As a result, the triggering of a calcium flux when MUC1-ST engaged Siglec-9 was investigated. Briefly, monocytes pre-labeled with an intracellular calcium reporter (Fluo-4; Life Technologies) were treated with MUC1-ST, MUC1-T (100 μg/10^6 cells) or a T47D monolayer, for 4 hours at 4° C. The cells were brought up to 37° C. and calcium flux was measured at 530 nm using a plate reader at the indicated time points. Where not indicated, the time point was 60 seconds. When monocytes or macrophages were treated with MUC1-ST, a Siglec-9 dependent increase in calcium influx was observed (FIGS. 13E-F). A calcium flux was also observed when monocytes and T47D cells came into contact. This effect could also be inhibited by the anti-Siglec-9 antibody.
The intracellular effects of MUC1-ST binding to Siglec-9 were further explored in the monocytic cell line, THP-1. […] THP-1 cells were further treated with DMSO or the MEK/ERK inhibitor PD98059 at 1004, and the concentration of PAI-1, M-CSF and kynurenine in cell supernatants were measured as described above. […]

T1 sequence (Q9Y336 18-463): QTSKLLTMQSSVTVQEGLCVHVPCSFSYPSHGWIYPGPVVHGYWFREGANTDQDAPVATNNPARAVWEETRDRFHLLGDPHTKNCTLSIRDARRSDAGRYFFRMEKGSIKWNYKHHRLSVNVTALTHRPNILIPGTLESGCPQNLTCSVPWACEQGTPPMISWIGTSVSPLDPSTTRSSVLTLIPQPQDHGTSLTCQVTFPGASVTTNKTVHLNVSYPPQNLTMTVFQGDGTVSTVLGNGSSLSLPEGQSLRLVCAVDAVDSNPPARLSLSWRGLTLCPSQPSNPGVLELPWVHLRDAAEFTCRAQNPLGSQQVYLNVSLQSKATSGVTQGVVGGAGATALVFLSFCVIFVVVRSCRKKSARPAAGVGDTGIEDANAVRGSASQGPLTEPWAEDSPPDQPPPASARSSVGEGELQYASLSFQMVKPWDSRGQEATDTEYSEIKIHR

As to “NeuAcα2,3Galβ1-3GalNAc linked via a Ser/Thr of MUC1 [MUC1-ST]”, the “phosphorylation of Siglec-9” value with Siglec-9 [1] was “inhibited”. Also, the binding to cells result with Siglec-9 [2] was “found to bind”. In addition, the calcium flux entry with THP-1 cells was “induce calcium flux”.
